Data as given in IntAct's records for PubMed 11713520.

B1: Auxin-responsive protein IAA17 (Arabidopsis thaliana (Mouse-ear cress)), P93830 (parent)
chain: MMGSVELNLRETELCLGLPGGDTVAPVTGNKRGFSETVDLKLNLNNEPANKEGSTTHDVVTFDSKEKSACPKDPAKPPAKAQVVGWPPVRSYRKNVMVSCQKSSGGPEAAAFVKVSMDGAPYLRKIDLRMYKSYDELSNALSNMFSSFTMGKHGGEEGMIDFMNERKLMDLVNSWDYVPSYEDKDGDWMLVGDVPWPMFVDTCKRLRLMKGSDAIGLAPRAMEKCKSRA
partner: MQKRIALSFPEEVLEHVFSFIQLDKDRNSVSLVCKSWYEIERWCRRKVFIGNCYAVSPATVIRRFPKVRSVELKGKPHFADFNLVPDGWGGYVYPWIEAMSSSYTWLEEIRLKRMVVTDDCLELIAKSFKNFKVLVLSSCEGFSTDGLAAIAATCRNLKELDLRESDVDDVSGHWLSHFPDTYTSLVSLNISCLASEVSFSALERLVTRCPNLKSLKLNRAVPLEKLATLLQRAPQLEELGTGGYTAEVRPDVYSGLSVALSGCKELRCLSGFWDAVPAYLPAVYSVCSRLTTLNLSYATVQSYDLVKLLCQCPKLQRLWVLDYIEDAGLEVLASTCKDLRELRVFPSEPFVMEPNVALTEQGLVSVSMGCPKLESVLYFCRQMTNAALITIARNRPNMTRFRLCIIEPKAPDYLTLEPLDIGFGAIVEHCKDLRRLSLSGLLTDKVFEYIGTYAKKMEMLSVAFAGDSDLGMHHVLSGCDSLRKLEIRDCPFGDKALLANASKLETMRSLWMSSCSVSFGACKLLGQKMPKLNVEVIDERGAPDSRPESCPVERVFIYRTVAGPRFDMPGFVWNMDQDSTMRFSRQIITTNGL

Variants of: B1
Conditions: with tir1_arath TIR1, Q570C0

| Variant | effect of a mutation on the interaction |
| --- | --- |
| P88L | decreasing interaction |
